Source: doi:10.1101/2025.02.26.640323, “Aggregation-Dependent Epitope Sequence and Modification Fingerprints of Anti-Aβ Antibodies” (bioRxiv, 2025)
“Also recorded” adds a separate entry of the source.

Assays:
[1] = Isoelectric point on CIEF immunoassay; format: physicochemical; settings: Peggy Sue
Procedure: (§1) Automated capillary isoelectric focusing immunoassays were performed with a Peggy-Sue system (ProteinSimple,San Jose, California, USA), essentially as previously described and [53].
(§2) In brief, synthetic Aβ peptide variants were separated by isoelectric focusing in microcapillaries followed by photochemical immobilization to the inner capillary walls and probing with the primary antibodies for 120 min. After 2 washes, the horseradish peroxidase conjugated secondary antibodies were loaded and incubated for 60 min. After two washing steps, a luminol/peroxide mix was loaded, and chemiluminescent signals were recorded. The data was analyzed with the Compass for SW software. The following secondary antibodies were used: Anti-human IgG Secondary HRP antibody (Protein Simple, catalog number 043–491), Goat-Anti-Mouse-HRP Secondary Antibody ProteinSimple, catalog number 040–655) and Peroxidase-conjugated Affini Pure Donkey Anti-Human IgG (H+L) (1:100 dilution) (Jackson ImmunoResearch Laboratories Inc., West Grove, PA, code number 709–035-149).

[2] = system: Aβ vascular and parenchymal deposits in AD brain sections; test: Immunohistochemistry on AD brain tissue with antibody pre-adsorption; set-up: species or system human
Procedure: Immunohistochemistry was performed on 4-μm paraffin sections. In brief, brain sections were deparaffinized in Roticlear (Carl Roth, Karlsruhe, Germany) and rehydrated in a descending series of ethanol. Activity of endogenous peroxidases was blocked by incubation in 0.3% H2O2 in PBS for 30 min. […] Antibodies and peptides were incubated on a rotator for 3 h at room temperature and reaction tubes were centrifuged at 13000 rpm for 5 min at the end of the incubation period. Control conditions included antibodies in 0.01 M PBS including 10% FCS without synthetic peptides. Adjacent paraffin-embedded sections from a human AD case were incubated overnight with the supernatants and sections were washed with 0.01 M PBS including 0.1 % Tergitol. For detection, biotinylated anti-human antibodies (6 μg/ml, Jackson ImmunoResearch, West Grove, Pennsylvania, USA #109-065-003) were used and staining was visualized with the ABC method with a Vectastain kit (Vector Laboratories, Newark, California, USA), diaminobenzidine as a chromogen and counterstaining with hematoxylin.

[3] = system: synthetic Aβ peptide variants; test: Capillary isoelectric focusing (CIEF) immunoassay; format: binding; settings: Peggy Sue, chemiluminescence
Procedure: as §1, §2

[4] = system: amyloid precursor protein (APP770) residues 649–722; test: Peptide microarray epitope pre-screening (overlapping 15-mers); format: binding, human; settings: Aβ residue numbers; 15-mer peptides overlapping by 14AAs on cellulose conjugates, 0.5–1 μg/mL antibody, chemiluminescence
Procedure: Information regarding binding epitopes and /or immunogens for most of the tested Aβ-Abs has been published and is summarized in Table 1. However, the binding epitope information was derived from varying methodologies. To provide an initial side-by-side comparison we pre-screened all of the listed Aβ-Abs in array format using copies of peptide libraries and standard antibody concentrations of 0.5–1 μg/mL (Figure 1a). The library comprised the amyloid precursor protein (APP770) residues 649–722, corresponding to the canonical Aβ1–42 amino acid sequence with additional 23 amino terminal and 9 carboxy terminal residues. […] For optimal signal to noise ratios and ideal selectivity profiles on the microarrays, the Aβ-Ab concentrations were adjusted for 3D6, 82E1, 11H3, 80C2 and 7H3D6 (Figure 1 – figure- supplement 1) and (Appendix 1–7). […] Specifically, Donanemabbs, 2–48 and Aβ-pE3 were raised against AβpE3-x (Table 1) and were expected to show preference for Aβ peptides starting with a pE(3).
Figure 1. Microarray workflow and Aβ-Ab epitope pre-screening. (a) Schematic of the microarray workflow. The library comprised the amyloid precursor protein (APP) residues 649–722 (APP770 numbering), corresponding to Aβ residues −23 to 51, as a library of 15-mer peptides overlapping by 14AAs, copied in dozens, and probed for Aβ-Abs binding followed by analysis in MARTin. (b) The epitope screening binding data are summarized as a heatmap. Blue and red shades indicate the relative binding strength of the related arrayed peptides to the left and cognate Aβ-Ab on top. The blue – red scale is visualizing the normalized binding intensity for each antibody individually. The applied antibody concentrations ranged between 0.5–1 μg/mL.
The μSPOT assay was performed as previously described. […] Peptide arrays were synthesized using MultiPep RSi robot (CEM GmbH, Kamp-Lintford, Germany) on cellulose discs containing Fmoc-β-Ala linkers. Natural amino acid building blocks were purchased from IRIS (IRIS Biotech GmbH, Marktredwitz, Germany). Special building blocks employed in this study such as isomers, stereoisomers, phosphorylation and pyroglutamination […] modifications are listed here: Fmoc-L-Ser(PO(OBzl)OH)-OH (Iris – FAA1423), L-Pyroglutamic acid pentachlorophenyl ester (Novabiochem - 8.54203), Fmoc-L-Asp-OtBu (Iris – FAA1356), Fmoc-D-Asp-OtBu (Carbosolutions – CC05095) and Fmoc-D-Asp(tBu)-OH (Iris – FAA1309). Synthesis was carried out by deprotecting the Fmoc-group using 20% piperidine in dimethylformamide (DMF). Peptide chains were elongated using a coupling solution consisting of amino acids (0.5M) with oxyma (1M) and DIC (1M) in DMF (1:1:1). Coupling steps were carried out 3 times (30min), followed by capping (4% acetic anhydride in DMF). Discs were transferred into 96 deep-well plates for the work-up.

[5] = system: endogenous soluble Aβ in pooled human CSF; test: IP-MS from pooled human CSF; format: binding; settings: 250 μL pooled human CSF, CHCA matrix; two replicate measurements each from two independent immunoprecipitations
[6] = system: Aβ1–42 monomer, oligomer and fibril preparations; AβpE3–40; test: Bistris-SDS gradient PAGE/Western blot; format: binding; settings: 4–12% Bistris SDS-PAGE/Western blot
Procedure: No SPR-487B) (StressMarq biosciences, Victoria, BC, Canada). The samples for electrophoresis were prepared (starting from stock solutions) with final concentrations of 0.1 μg/μL) in LDS sample buffer (247.5 mM Tris-HCl, pH 8.5, 2% (w/v) lithium dodecyl sulfate (LDS), 10% (v/v) glycerol, 0.5 mM EDTA, 0.22 mM Brilliant Blue G250, 0.175 mM Phenol Red) and denatured by heating at 70°C for 10 min. […] The prechilled transfer buffer contained 25 mM Tris, 192 mM glycine, 20% (v/v) methanol and 0.0375 % Tween-20. After blotting, the membrane was washed for 10 min at room temperature in Tris-buffered saline (TBS) followed by blocking for 30 min with 5% powdered milk in TBS containing 0.1% Tween-20 (TBS-T). The blots were then incubated with primary antibodies in 5% milk in TBS-T over night at 4°C and washed 3 × for 10 min with TBS-T at room temperature. […] After 1 h incubation with the secondary antibodies, the blots were washed 3 × for 10 min with TBS-T and incubated for 5 min with ECL-Prime Western Blotting Detection Reagent (Cytiva Amersham, Little Chalfont, England). Images were recorded on a Vilber-Loumart Fusion SL blot imager. […] That way, the 4G8 reprobing signals were essentially added on top of the initial signals and background artifacts.

synthetic Aβ peptides = test: Peptide Bicine-Tris SDS-PAGE/Western blot; format: binding; settings: PVDF, 50 ng per peptide, 0.5 μg/mL antibody
[7] = system: Alzheimer's disease patients; settings: cited from earlier work
Aβ = settings: cited from earlier work
[8] = Lecanemabbs #BXC-SIM0032, 0.06 μg with 0.25 μg peptide

Aβ1–40: synthetic Aβ peptide, AnaSpec
pI [1]: 5.31

Aβ1–42: synthetic Aβ peptide, AnaSpec; monomers, oligomers, fibrils from StressMarq
pI [1]: approx. 5.3

Aβ−3–40: N-terminally elongated Aβ, provided by H.-J. Knölker, Technische Universität Dresden
pI [1]: 6.04

B1: Lecanemabbs: humanized monoclonal, biosimilar of Lecanemab, Proteogenix (#PX-TA1746) and BioXCell (#BXC-SIM0032) (antibody, chains of the INN, looked up, V domains shown)
VH: EVQLVESGGGLVQPGGSLRLSCSASGFTFSSFGMHWVRQAPGKGLEWVAYISSGSSTIYYGDTVKGRFTISRDNAKNSLFLQMSSLRAEDTAVYYCAREGGYYYGRSYYTMDYWGQGTTVTVSS
VL: DVVMTQSPLSLPVTPGAPASISCRSSQSIVHSNGNTYLEWYLQKPGQSPKLLIYKVSNRFSGVPDRFSGSGSGTDFTLRISRVEAEDVGIYYCFQGSHVPPTFGPGTKLEIK
modifications: biosimilar
IHC immunoreactivity after pre-adsorption with Aβ1–42 fibrils ([2]; Aducanumabbs 0.5 μg with 5 μg fibrils, Lecanemabbs (PX-TA1746) 0.06 μg with 0.25 μg, human AD brain, antibody for IHC: Aducanumabbs 0.5 μg/μl (so in the source)): efficiently blocked | IHC immunoreactivity after pre-adsorption with Aβ1–42 monomers ([2]; Aducanumabbs 0.5 μg with 10 μg monomers, Lecanemabbs (PX-TA1746) 0.06 μg with 0.25 μg, human AD brain): efficiently blocked | IHC blocking by Aβ1–16 (BioXCell lot) [2, 8]: did not | IHC blocking by Aβ1–34 (BioXCell lot) [2, 8]: did not | IHC blocking by Aβ1–38 (BioXCell lot) [2, 8]: did not | IHC blocking by Aβ1–42 monomers (BioXCell lot) [2, 8]: completely blocked Lecanemabbs binding | IHC immunoreactivity after pre-adsorption with Aβ1–42 oligomers ([2]; Lecanemabbs (PX-TA1746) 0.06 μg with 0.25 μg oligomers, human AD brain): efficiently blocked | Aβ variants detected on CIEF-immunoassay [3]: recognized Aβ1–40, Aβ1–42, Aβ3–40 (pI approximately 5.97) Aβ-3–40 (aka. APP669–711),phosphorylated pSer8-Aβ1–40; also recorded: detected Aβ1–40 (pI 5.31), Aβ2–40 (pI 5.98), Aβ3–40 (pI 5.97), Aβ−3–40 (pI 6.04), Aβ1–42 (pI approx. 5.3) and pSer8Aβ1–40 (amide) (pI 5.13–5.14) | Array: epitope identified in this study on microarrays [4]: 3–7 | immunoprecipitation of endogenous Aβ from CSF [5]: immunoprecipitated authentic biological Aβ peptides from pooled human CSF; also recorded: Aβ1–40, Aβ1–38, Aβ42, Aβ1–37 and Aβ1–39 were detected, albeit with relatively low signal intensities | preference for Aβ1–42 aggregation state [6]: a certain, but not absolute preference for aggregated forms of Aβ1–42 over monomeric and low-n oligomeric forms | Aβ variants detected on Bicine-Tris SDS-PAGE/Western blot (synthetic Aβ peptides): recognized Aβ1–40, Aβ1–42, Aβ3–40 (pI approximately 5.97) Aβ-3–40 (aka. APP669–711),phosphorylated pSer8-Aβ1–40

B2: Lecanemab: designed at Uppsala University, humanized by BioArctic, later licensed to Eisai (antibody, chains of the INN, looked up, V domains shown)
VH: EVQLVESGGGLVQPGGSLRLSCSASGFTFSSFGMHWVRQAPGKGLEWVAYISSGSSTIYYGDTVKGRFTISRDNAKNSLFLQMSSLRAEDTAVYYCAREGGYYYGRSYYTMDYWGQGTTVTVSS
VL: DVVMTQSPLSLPVTPGAPASISCRSSQSIVHSNGNTYLEWYLQKPGQSPKLLIYKVSNRFSGVPDRFSGSGSGTDFTLRISRVEAEDVGIYYCFQGSHVPPTFGPGTKLEIK
Array: epitope identified in this study on microarrays [4]: 3–7 | ARIA-E frequency ([7]; cross-study comparison, ref [38]): 13% | clinical outcome, Clarity AD ([7]; ref [45],[46]): positive results in the Clarity AD trial | binding to aggregated versus monomeric Aβ (Aβ; ref [38],[40],[41],[83]): strong preference for Aβ protofibrils and to bind Aβ monomers only weakly; also recorded: preferably bind specific aggregated forms of Aβ over monomeric forms | preferential binding to fibrillar Aβ (Aβ; ref [46]): preferential binding to fibrillar Aβ aggregates
